Assay results taken from publication PMC9952396.
Values joined by “and” are separate entries in the source; they are usually repeats but may differ in a detail not shown here. Identical values can stand only once. Like-named read-outs stand apart in the source and are kept apart here.

What was measured:
Cys30 [1] = target: T1, Cys30 (UniProt position 49, FFSFFCPHCYQ); assay: UV-vis; conditions: room temperature, 200 mM KCl plus buffer salts, 10 mM dipotassium phosphate, 10 mM monopotassium phosphate, 10 mM sodium citrate, 10 mM Tris, 1 mM EDTA, Reduced DsbA (DTT-reduced, reagent removed), with oxidised DsbA (Cu(II)-phenanthroline-oxidised) as reference
Cys30 [2] = target: T1, Cys30; conditions: not stated (literature values for wild-type EcDsbA); cited from earlier work

Substance | pKa (Cys30 [1]) | pKa (Cys30 [2])
EcDsbA E24A (Escherichia coli (K-12); E24A) | 3.7 ± 0.1 | 
EcDsbA E24A/K58A (Escherichia coli (K-12); E24A;K58A) | 3.5 ± 0.1 | 
EcDsbA E24A/E37A/K58A (Escherichia coli (K-12); E24A;E37A;K58A) | 3.5 ± 0.1 | 
Thiol:disulfide interchange protein DsbA (EcDsbA), wild type (Escherichia coli (K-12)) | 3.3 ± 0.1 | 3.55 ± 0.02 and ~3.4
EcDsbA E37A (Escherichia coli (K-12); E37A) | 3.3 ± 0.1 | 
EcDsbA K58A (Escherichia coli (K-12); K58A) | 3.4 ± 0.1 | 
